Target: streptavidin (Streptomyces avidinii, UniProt P22629 25-183)
Experiment: SPR; binding through the 3'-biotin, not the DNA sequence; 10 uM BiotinDNA in water gave about 90 RU; about 70 RU lost on displacement by free biotin (0.01-10.24 mM); SPR: 10 uM BiotinDNA in water, 10 uL/min, immobilized streptavidin; displacement by free biotin in water; temperature and pH not given
Settings: protein: commercial; chain copies: 4; single strand

streptavidin, sequence (P22629 25-183): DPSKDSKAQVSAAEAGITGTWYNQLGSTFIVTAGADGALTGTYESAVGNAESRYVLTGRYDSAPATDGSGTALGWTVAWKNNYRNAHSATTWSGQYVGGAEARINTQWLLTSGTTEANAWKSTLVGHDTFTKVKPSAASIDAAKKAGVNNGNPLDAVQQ

AGCAGCCTAAG (ssDNA, 3'-biotin) [BiotinDNA]: binds.

Reference: publication PMC5238629, “Streptavidin-coated gold nanoparticles: critical role of oligonucleotides on stability and fractal aggregation”
